Data published in the supplement of paper PMC10567573.

B1: CAMK2A (parent)
chain: ILLVGYPPFWDEDQHRLYKQIKAG
B2: PPP2R2B (parent)
chain: RNTKRDVTLEASRENSKPRAILKP

Variants of: B1
Experiment: protein stability index of a GFP-peptide fusion (GPS, HEK-293T) (PSI 1-6); higher = more stable
Settings: c terminus: a fixed tail appended
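Also: lentivirally expressed fusions sorted by FACS into six bins by GFP to DsRed ratio, PSI derived from sequencing read proportions per bin multiplied by bin number.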

Protein stability index of substitutions, site by site:
I21: E 1.92, K 1.65, N 2.19, H 1.47, M 1.72
Y18: V 1.25, I 2.21
L17: A 1.62, D 2.06, P 2.03, N 1.31, Q 2.3, I 2.1, F 2.12
G5: K 2.35, V 3.83, Y 1.49, H 2.32, T 2.74, A 2.27
D11: L 2.39, W 2.44, R 1.21
F9: Q 2.38, L 2.27, N 2.86, S 2.19, C 2.58, G 1.67
Q14: N 2.33, I 2.05, E 2.01
Y6: F 2.73, H 1.28, N 1.93, P 2.19, D 2.12, Q 2.17, A 1.67, W 3.13, M 2.36
L3: S 2.4, F 2.68, Y 1.74, M 1.72, V 2.35, N 2.31, H 2.24, G 1.88
W10: E 1.78, I 2.71, Q 2.27, Y 2.05, F 2.27
K22: G 1.63, T 2.52, V 2.15, N 2.6, C 2.31, H 1.52, Y 2.43, R 1.91, F 2.94
H15: S 2.89, K 1.24, D 2.13, G 2.21, E 2.14, P 2.6
K19: D 2.82, S 2.63, P 1.73, F 2.66
Q20: C 1.94, G 2.1, S 1.86, I 1.96, K 1.56, L 2.6
E12: L 1.95, I 2.76, R 2.23, P 2.84, M 3.3, A 1.49, V 2.56
P8: F 2.95, M 1.89, Y 1.98, D 1.67, A 1.83
P7: H 3.75, T 2.56, F 2.85, A 1.47, G 2.31, Q 1.28, D 1.39
D13: P 2.24, M 3.08, V 2.54, C 2.36, T 2.2, S 2.06
V4: H 2.23, S 1.65, A 1.07, E 1.53, N 1.92, R 1.47, L 2.66, D 2.4, F 2.76
A23: V 1.98, E 2.26, N 2.67, Y 2.73, S 2.46, P 1.8, Q 2.82
L2: Y 2.93, K 1.63, M 3.1, F 1.3, E 2.04
R16: W 1.62, P 1.54, L 2.27, S 2.5, Y 3.24, C 2.16, F 2.2
G24: P 1.65, M 1.58, Q 3.66, A 2.05, R 2.4, F 1.51, I 2.71, C 2.27, S 2.52
I1: G 2.21, T 1.58, S 2.33, D 2.1, C 2.39, P 2.27, A 2.25

Variants of: B2
Experiment: as above
Settings: c terminus: a fixed tail appended

Protein stability index, by site and new letter:
R5: Q 4.54, V 4.91, A 5.17, S 4.49, G 5.07, T 4.94, H 4.85, N 4.92, M 3.86, I 4.19, D 4.68, K 4.62, Y 4.26, E 5.03, L 4.4, P 4.79, W 3.87, F 4.44, C 4.43
V7: K 4.6, S 4.58, A 4.19, T 4.81, G 4.83, C 3.77, I 4.25, Y 4.63, E 4.46, R 4.59, Q 4.8, W 4.61, F 4.43, P 4.98, H 4.67, D 4.86, N 4.76, M 4.81, L 4.42
T3: A 4.87, P 4.53, S 4.61, V 4.57, M 4.35, Y 3.84, D 4.81, I 4.45, G 4.29, R 4.45, E 4.88, L 4.64, H 4.4, W 4.05, C 4.55, F 4.17, Q 4.75, N 3.95, K 4.91
T8: Q 4.62, H 4.35, F 3.88, R 4.68, W 3.66, K 4.86, M 4.34, A 4.72, D 5.02, N 4.98, L 4.62, Y 4.31, E 4.9, S 4.3, G 4.54, C 4.2, I 4.35, V 4.25, P 4.76
R1: A 4.61, P 4.27, W 4.45, S 4.47, N 4.79, F 4.29, V 4.44, K 4.65, H 4.72, C 4.88, E 4.31, D 4.97, M 4.44, L 4.62, T 4.99, Y 4.22, Q 4.81, I 4.61, G 4.9
D6: I 3.64, N 4.55, T 4.34, A 4.64, G 4.44, C 4.29, F 3.83, W 3.27, K 4.45, S 4.55, L 3.94, H 4.49, Q 4.46, P 3.81, M 4.33, Y 3.79, E 4.49, V 4.08, R 4.29
L9: N 4.22, S 4.89, Y 4.52, Q 5.07, I 4.38, V 4.59, P 4.4, G 4.88, H 4.46, D 5.09, W 4.34, A 4.9, K 4.26, E 4.78, C 4.78, M 4.84, F 4.11, T 4.96, R 4.84
E10: N 4.25, F 3.49, M 3.83, S 4.38, Q 4.33, R 4.01, K 4.52, D 4.64, A 4.52, I 4.14, P 4.55, C 3.86, H 4.12, G 4.32, L 3.6
K4: P 4.88, N 4.77, C 3.8, M 4.71, T 4.82, A 4.43, G 4.61, Y 4.42, I 4.29, V 4.19, R 4.54, F 4.42, S 4.92, E 4.6, L 4.61, H 4.84, Q 4.96, D 4.72, W 3.39
N2: K 4.51, R 4.02, Q 4.06, S 4.62, C 4.27, M 4.4, A 4.31, V 4.1, L 3.72, P 4.31, D 4.89, F 4.51, W 3.34, E 4.82, Y 4.37, I 4.69, H 4.66, G 4.81, T 4.42
